Usually stoichiometry N stands for the number of molecules, sites or subunits per partner or assembly.

First the molecules themselves.
T1: C-Tir, C-terminal cytosolic region of Tir of EPEC O127:H6, residues 388-550, unphosphorylated (Enteropathogenic E. coli (EPEC) O127:H6, UniProt B7UM99 388-550)
T1 construct: Translocated intimin receptor Tir, EPEC O127:H6, residues 388-550; Trx-His6 tag cleaved on-column with HRV-3C protease; 15N-labelled for the NMR titration; also called unphosphorylated C-Tir; Tir C-terminus; source: E. coli BL21 Star (DE3) pLysS, lysed by boiling, purified (Strep-Tactin XT, Superdex 200); not shown: Trx, N-terminal, cleaved; His6, N-terminal, cleaved; Strep-tag, C-terminal, kept
T1 sequence: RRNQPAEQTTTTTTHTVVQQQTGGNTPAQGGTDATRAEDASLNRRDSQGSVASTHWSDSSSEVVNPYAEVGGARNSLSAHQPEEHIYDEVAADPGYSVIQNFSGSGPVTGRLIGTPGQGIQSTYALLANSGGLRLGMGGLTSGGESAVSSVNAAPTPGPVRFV

T2: pC-Tir, C-Tir (residues 388-550 of EPEC O127:H6 Tir) phosphorylated by Fyn at four tyrosines (Enteropathogenic E. coli (EPEC) O127:H6, UniProt B7UM99 388-550, phosphotyrosine at Y454, Y474, Y483 and Y511)
T2 construct: Translocated intimin receptor Tir, EPEC O127:H6, residues 388-550; Same construct as m4, phosphorylated in vitro; 15N-labelled for the NMR titration; also called 4-fold phosphorylated state; phosphorylated C-Tir; not shown: Trx, N-terminal, cleaved; His6, N-terminal, cleaved; Strep-tag, C-terminal, kept
T2 sequence: T1 sequence

T3: C-terminal SH2 domain (C-SH2) of human phosphatase SHP-1, residues 101-217 (human, UniProt P29350 101-217)
T3 chain: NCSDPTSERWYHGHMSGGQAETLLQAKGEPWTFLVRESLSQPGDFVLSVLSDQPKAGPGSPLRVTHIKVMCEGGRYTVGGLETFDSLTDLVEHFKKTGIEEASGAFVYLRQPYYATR

B1: C-terminal SH2 domain (C-SH2) of human phosphatase SHP-1, residues 101-217 (domain or fragment, UniProt P29350 101-217, looked up)
chain: T3 chain
notes: Tyrosine-protein phosphatase SHP-1, human, C-terminal SH2 domain, residues 101-217; PCR-amplified from the vector pGEX SHP-1(NC)-SH2; Trx-His6 tag cleaved on-column with HRV-3C protease; unlabelled in the NMR titrations; also called SHP-1 C-SH2 domain; source: E. coli BL21 Star (DE3) pLysS, purified (Strep-Tactin XT, Superdex 200); not shown: Trx, N-terminal, cleaved; His6, N-terminal, cleaved
B2: pC-Tir, C-Tir (residues 388-550 of EPEC O127:H6 Tir) phosphorylated by Fyn at four tyrosines (domain or fragment)
chain: T1 sequence
modifications: phosphotyrosine at Y454, Y474, Y483 and Y511
B3: NS-Tir, N-terminal structured region of Tir (N-Tir 61-200) of EPEC O127:H6 (domain or fragment)
chain: VDSRDIPGLPTNPSRLAAATSETCLLGGFEVLHDKGPLDILNTQIGPSAFRVEVQADGTHAAIGEKNGLEVSVTLSPQEWSSLQSIDTEGKNRFVFTGGRGGSGHPMVTVASDIAEARTKILAKLDPDNHGGRQPKDVDT
notes: Translocated intimin receptor Tir, EPEC O127:H6, residues 61-200; Trx-His6 tag cleaved in vivo by co-expressed TEV protease; source: E. coli BL21 Star (DE3) pLysS, purified (Strep-Tactin XT, Superdex 200); not shown: Trx, N-terminal, cleaved; His6, N-terminal, cleaved; Strep-tag, C-terminal, kept
B4: N-Tir, N-terminal cytosolic region of the translocated intimin receptor (Tir) of EPEC O127:H6, residues 1-233 (domain or fragment)
chain: MPIGNLGNNVNGNHLIPPAPPLPSQTDGAARGGTGHLISSTGALGSRSLFSPLRNSMADSVDSRDIPGLPTNPSRLAAATSETCLLGGFEVLHDKGPLDILNTQIGPSAFRVEVQADGTHAAIGEKNGLEVSVTLSPQEWSSLQSIDTEGKNRFVFTGGRGGSGHPMVTVASDIAEARTKILAKLDPDNHGGRQPKDVDTRSVGVGSASGIDDGVVSETHTSTTNSSVRSDPK
notes: Translocated intimin receptor Tir, EPEC O127:H6, residues 1-233, from a synthetic E. coli codon-optimised gene of the full-length protein; Trx-His6 tag cleaved in vivo by co-expressed TEV protease; also called Tir's N-terminal tail; source: E. coli BL21 Star (DE3) pLysS, purified (Strep-Tactin XT, Superdex 200); not shown: Trx, N-terminal, cleaved; His6, N-terminal, cleaved; Strep-tag, …

Data set [1] has as its target B2. Briefly: NMR; site pY483 (apparent local Kd).
Data set [2] deals with T1, C-Tir, C-terminal cytosolic region of …. Kind of data set: NMR titration; unlabelled C-SH2 added to 15N-labelled unphosphorylated C-Tir (2.0 and 8.0 equivalents shown); [15N-1H]-HSQC peak intensities of A512-A515 fitted globally to a 1:1 model; apparent KD. To be noted: both partners purified.
For data set [3], the target named is B2. Briefly: NMR; site pY454 (apparent local Kd).
Data set [4] addresses T2, pC-Tir, C-Tir (residues 388-550 of EPEC …). Kind of data set: NMR titration; 15N-labelled pC-Tir (95 uM) titrated with 0.25, 0.5, 0.75, 1, 2, 4 and 6 equivalents of unlabelled C-SH2; [15N-1H]-HSQC peak intensities clustered by phosphorylation site and fitted globally to a 1:1 model; apparent KD for each site. Conditions: both partners purified.
Data set [5] concerns the target B2. Briefly: NMR; site pY511 (apparent local Kd).
For data set [6], the target named is B2. Briefly: NMR; site pY474 (apparent local Kd).
Data set [7] concerns the target T3, C-terminal SH2 domain (C-SH2) of human …. Briefly: NMR; site pY474, apparent.
Data set [8] has the same target. Briefly: NMR; site pY454, apparent.
For data set [9] the target is unchanged. Kind of data set: NMR; site pY483, apparent.
For data set [10] the target is unchanged. Kind of data set: NMR; site pY511, apparent.
Data set [11] concerns the molecule itself. Briefly: SEC-SAXS; synchrotron SEC-SAXS, B21 beamline, Shodex KW403-4F column; 100 mM Tris-HCl pH 8.0, 150 mM NaCl, 2 mM DTT, 1 mM EDTA; 50 uL of 10.0-25.0 mg/mL injected; dimeric single-peak region. For orientation: Size exclusion chromatography separates by hydrodynamic size, large species first.

B1: the Kd in data set [1] was 9.25 µM; in data set [2], approximately 68.5 µM; in data set [3] it was 86.1 µM; in data set [5], 6.94 µM; in data set [6], 2.66 µM. The “fold enhancement of binding at the Y511 site against unphosphorylated C-Tir” value in data set [4] was approximately 10 fold.
Take B2: the Kd was found to be 2.66 µM in [7], 86.1 µM in data set [8], 9.25 µM in data set [9] and 6.94 µM in data set [10].
With B3, the “stoichiometry N” value in data set [11] turned out to be 2.
Same read-out and setting: in the case of B4 it was 2.

The values are drawn from PMC10864410, “The pathogen-encoded signalling receptor Tir exploits host-like intrinsic disorder for infection” (Communications Biology, 2024).
